This passage reports EC50 results from patent US20220031842A1 (JIANGSU HENGRUI MEDICINE, published 2022).

One may read the EC50 as the concentration needed to bring the measured effect to its halfway point.

The target in the assay is T1, Full length of LAG-3 (human LAG-3 over-expressed on CHO-S cells) (human, UniProt P18627 23-525).
T1 construct: also called LAG-3 over-expressing CHO-S cells; full-length LAG-3
T1 sequence: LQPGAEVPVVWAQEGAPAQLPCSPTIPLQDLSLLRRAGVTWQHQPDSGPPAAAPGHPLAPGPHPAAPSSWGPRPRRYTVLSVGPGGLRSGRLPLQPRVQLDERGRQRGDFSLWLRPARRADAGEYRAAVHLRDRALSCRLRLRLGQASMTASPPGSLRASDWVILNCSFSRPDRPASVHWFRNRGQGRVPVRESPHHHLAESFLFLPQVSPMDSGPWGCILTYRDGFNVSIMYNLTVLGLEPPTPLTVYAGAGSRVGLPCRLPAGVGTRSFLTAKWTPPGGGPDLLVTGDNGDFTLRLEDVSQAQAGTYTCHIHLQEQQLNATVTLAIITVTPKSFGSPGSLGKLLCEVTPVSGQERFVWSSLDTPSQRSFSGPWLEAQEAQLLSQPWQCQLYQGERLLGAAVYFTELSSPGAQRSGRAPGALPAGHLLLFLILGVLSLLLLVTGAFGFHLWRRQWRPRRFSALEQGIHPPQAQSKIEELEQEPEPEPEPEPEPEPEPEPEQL
As to the kind of experiment: cell ELISA on fixed CHO-S cells overexpressing full-length human LAG-3. The method, then: 100 μl/well of cells were seeded into 96-well plate at a density of 4×10⁵/ml and incubated overnight. The supernatant was discarded, and the plate was washed three times with PBS, and was fixed with 4% PFA (100 μl/well) for half an hour at room temperature, and then the plate was washed three times with PBS. After discarding the liquid, the plate was blocked with 200 μl/well of blocking solution containing 5% skim milk (Bright Dairy, skim milk powder) diluted in PBS, and incubated at 37° C. for 2.5 hours. After blocking, the blocking solution was discarded and the plate was washed 5 times with PBST buffer (PH7.4 PBS containing 0.05% tween-20), added with 50 μl/well of various concentrations of antibodies to be tested (Hybridoma purified antibody or humanized antibody) which have been diluted with sample diluent, and then incubated in incubator at 37° C. for 1 h. The plate was washed 5 times with PBST after incubation, added with 100 μl/well of goat anti-mouse (Jackson Immuno Research, Cat No. 115-035-003) or goat anti-human secondary antibody (Jackson Immuno Research, Cat No. 109-035-003) labeled with HRP, diluted in sample diluent, and the plate was incubated at 37° C. for 1 h. […]
(ELISA stands for enzyme-linked immunosorbent assay.)

B1: mAb229 (antibody, V domains shown)
VH: QIQLVQSGPELKKPGETVKISCKASGYTFTTSGMSWVKQAPGKGLKWMGWINTYSGVPTYADDFKGRFAFSLETSASTAYLQINNLKNEDTATYFCARDNYDARDVYYYAMDYWGQGTSVTVSS
VL: DIQMTQSPASLSVSVGETVTITCRASENIYSNLAWYQQKQGKSPQLLVYAATNLADGVPSRFSGSGSGTQYSLKINSLQSEDFGSYYCQHFWITPWTFGGGTKLEIK
notes: Murine hybridoma antibody; also called LAG-3 antibody mAb229; hybridoma clone mAb229
The molecule B1 came in with an EC50 of 0.191 nM.

B2: mAb303 (antibody, V domains shown)
VH: EVQLQQSGPVLVKPGASVKMSCKASGYTLTDYYMNWVKQSHGKSLEWIGVINPYNGDTAYNQKFKGKATLTVDKSSNTAYMEINSLTSEDSAVYYCTRDDGYYDYYFDVWGTGTTVTVSS
VL: DIQMTQSPSSLSASLGERVILTCRASQDIGSRLNWLQQGPDGTFKRLIYATSTLDSGVPKRFSGSRSGSDFSLTISSLESEDFVDYYCLQLASSPPTFGGGTKLEIK
notes: Murine hybridoma antibody; also called LAG-3 antibody mAb303; hybridoma clone mAb303
Take B2: the midpoint of the response, the EC50, lay at 0.279 nM.
